One may read the Kd as the concentration at which binding is half-saturated. High values mean weaker binding, low ones tighter binding.

For assay [1], the target named is T1, Neisseria gonorrhoeae fHbp homologue (NGO0033) (Neisseria gonorrhoeae).
T1 chain: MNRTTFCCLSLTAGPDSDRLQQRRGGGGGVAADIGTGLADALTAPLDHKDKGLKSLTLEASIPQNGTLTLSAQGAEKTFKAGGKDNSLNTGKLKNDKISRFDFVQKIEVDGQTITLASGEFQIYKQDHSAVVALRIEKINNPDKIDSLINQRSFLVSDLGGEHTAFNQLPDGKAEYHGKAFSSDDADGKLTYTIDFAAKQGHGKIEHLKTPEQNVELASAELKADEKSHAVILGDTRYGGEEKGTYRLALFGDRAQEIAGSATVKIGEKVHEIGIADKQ
Briefly: SPR.

In assay [2] the target is T2, factor H binding protein (wild type, variant 1) (UniProt E6MV22 20-274).
T2 chain: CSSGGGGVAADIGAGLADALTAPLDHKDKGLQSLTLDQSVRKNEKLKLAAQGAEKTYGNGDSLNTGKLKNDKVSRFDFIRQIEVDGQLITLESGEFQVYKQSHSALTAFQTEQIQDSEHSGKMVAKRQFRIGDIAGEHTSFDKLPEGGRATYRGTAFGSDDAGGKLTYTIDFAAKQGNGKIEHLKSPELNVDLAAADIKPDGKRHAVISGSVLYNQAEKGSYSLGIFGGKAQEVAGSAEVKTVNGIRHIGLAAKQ
Briefly: SPR; 402His. A general note: Surface plasmon resonance follows binding to a sensor surface in real time, without labels.

In assay [3] the target is T2, factor H binding protein (wild type, …). Put plainly: SPR.
Assay [4] shares this target. Put plainly: SPR.
Assay [5] addresses fHbp Variant 3 (Neisseria meningitidis). Put plainly: SPR.
Assay [6] addresses fHbp Variant 2 (Neisseria meningitidis). Put plainly: SPR.
Assay [7] concerns the target fHbp variant 2 (Neisseria meningitidis). Put plainly: SPR; sensorgram.
In assay [8] the target is fHbp variant 3 (Neisseria meningitidis). Put plainly: SPR; sensorgram.
For the next assay, the target named is 6 7H 8. Put plainly: SPR; 402His.
For the next assay, the target named is fH678 His 402. Briefly: SPR; 402His.
For another assay, the target named is fH678 Tyr402. Briefly: SPR; 402Tyr.
The target in another assay is 6 7Y 8. Briefly: SPR; 402Tyr.
In another assay the target is FH67 N339E M340S. Put plainly: SPR.

B1: fH67 (CCPs 6 and 7 of factor H) (other)
chain: TLKPCDYPDIKHGGLYHENMRRPYFPVAVGKYYSYYCDEHFETPSGSYWDHIHCTQDGWSPAVPCLRKCYFPYLENGYNQNYGRKFVQGKSIDVACHPGYALPKAQTTVTCMENGWSPTPRCI
Regarding B1, the Kd in assay [1] stood at 6000 nM; in [2] it was 4 nM; in assay [3], 4 nM; in assay [4], 5 nM.

B2: FH67 (other)
chain: TLKPCDYPDIKHGGLYHENMRRPYFPVAVGKYYSYYCDEHFETPSGSYWDHIHCTQDGWSPAVPCLRKCYFPYLENGYNQNYGRKFVQGKSIDVACHPGYALPKAQTTVTCMENGWSPTPRCI
For the molecule B2, the Kd with fHbp Variant 3 [5] was 3 nM; with fHbp Variant 2 [6] it was 2 nM.

B3: FH678 (other)
chain: TLKPCDYPDIKHGGLYHENMRRPYFPVAVGKYYSYYCDEHFETPSGSYWDHIHCTQDGWSPAVPCLRKCYFPYLENGYNQNYGRKFVQGKSIDVACHPGYALPKAQTTVTCMENGWSPTPRCIRVKTCSKSSIDIENGFISESQYTYALKEKAKYQCKLGYVTADGETSGSITCGKDGWSAQPTCIKSC
For B3, the Kd with fHbp variant 2 [7] was 1.51 nM; with fHbp variant 3 [8], 3.43 nM; in the assay with fHbp Variant 3 [5], 3 nM; with fHbp Variant 2 [6], 2 nM.

B4: fHbp (other)
chain: CSSGGGGVAADIGAGLADALTAPLDHKDKGLQSLTLDQSVRKNEKLKLAAQGAEKTYGNGDSLNTGKLKNDKVSRFDFIRQIEVDGQLITLESGEFQVYKQSHSALTAFQTEQIQDSEHSGKMVAKRQFRIGDIAGEHTSFDKLPEGGRATYRGTAFGSDDAGGKLTYTIDFAAKQGNGKIEHLKSPELNVDLAAADIKPDGKRHAVISGSVLYNQAEKGSYSLGIFGGKAQEVAGSAEVKTVNGIRHIGLAAKQ
With B4, the Kd turned out to be 6 nM with 6 7H 8, 5.7 nM with fH678 His 402, 7.2 nM with fH678 Tyr402 and 7 nM in the assay with 6 7Y 8.

B5: fHbp Variant 1 (other)
chain: CSSGGGGVAADIGAGLADALTAPLDHKDKGLQSLTLDQSVRKNEKLKLAAQGAEKTYGNGDSLNTGKLKNDKVSRFDFIRQIEVDGQLITLESGEFQVYKQSHSALTAFQTEQIQDSEHSGKMVAKRQFRIGDIAGEHTSFDKLPEGGRATYRGTAFGSDDAGGKLTYTIDFAAKQGNGKIEHLKSPELNVDLAAADIKPDGKRHAVISGSVLYNQAEKGSYSLGIFGGKAQEVAGSAEVKTVNGIRHIGLAAKQ
B5 registered a Kd in the assay with FH67 N339E M340S of 67 nM.

B6: Factor H Domains 5, 6 and 7 (other)
chain: KSCDNPYIPNGDYSPLRIKHRTGDEITYQCRNGFYPATRGNTAKCTSTGWIPAPRCTLKPCDYPDIKHGGLYHENMRRPYFPVAVGKYYSYYCDEHFETPSGSYWDHIHCTQDGWSPAVPCLRKCYFPYLENGYNQNYGRKFVQGKSIDVACHPGYALPKAQTTVTCMENGWSPTPRCI
As to B6, the dissociation constant Kd in assay [2] amounted to 6 nM; in assay [3], 6.1 nM.

The record behind these values is patent US20120052092A1 (published 2012).
